Assay results taken from the supplement of paper PMC10567573.

B1: PTPRD (parent)
chain: ELDELLKEISRKRRSIRYGREVEL

Variants of: B1
Test: protein stability index of a GFP-peptide fusion (GPS, HEK-293T) (PSI 1-6); higher = more stable
Settings: c terminus: a fixed tail appended
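Further: lentivirally expressed fusions sorted by FACS into six bins by GFP to DsRed ratio, PSI derived from sequencing read proportions per bin multiplied by bin number.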

Variant	protein stability index
ALDELLKEISRKRRSIRYGREVEL [E1A]	2.54
CLDELLKEISRKRRSIRYGREVEL [E1C]	2.07
DLDELLKEISRKRRSIRYGREVEL [E1D]	2.3
FLDELLKEISRKRRSIRYGREVEL [E1F]	1.83
GLDELLKEISRKRRSIRYGREVEL [E1G]	2.52
HLDELLKEISRKRRSIRYGREVEL [E1H]	2.47
ILDELLKEISRKRRSIRYGREVEL [E1I]	1.77
KLDELLKEISRKRRSIRYGREVEL [E1K]	2.26
LLDELLKEISRKRRSIRYGREVEL [E1L]	1.98
MLDELLKEISRKRRSIRYGREVEL [E1M]	2.73
NLDELLKEISRKRRSIRYGREVEL [E1N]	2.56
PLDELLKEISRKRRSIRYGREVEL [E1P]	3.07
QLDELLKEISRKRRSIRYGREVEL [E1Q]	2.41
RLDELLKEISRKRRSIRYGREVEL [E1R]	2.17
SLDELLKEISRKRRSIRYGREVEL [E1S]	4.1
TLDELLKEISRKRRSIRYGREVEL [E1T]	3.25
VLDELLKEISRKRRSIRYGREVEL [E1V]	1.93
WLDELLKEISRKRRSIRYGREVEL [E1W]	2.69
EADELLKEISRKRRSIRYGREVEL [L2A]	3.79
ECDELLKEISRKRRSIRYGREVEL [L2C]	3.06
EDDELLKEISRKRRSIRYGREVEL [L2D]	4.14
EEDELLKEISRKRRSIRYGREVEL [L2E]	4.41
EFDELLKEISRKRRSIRYGREVEL [L2F]	2.49
EGDELLKEISRKRRSIRYGREVEL [L2G]	3.58

Variant	protein stability index
EHDELLKEISRKRRSIRYGREVEL [L2H]	4.32
EIDELLKEISRKRRSIRYGREVEL [L2I]	2.6
EKDELLKEISRKRRSIRYGREVEL [L2K]	4.09
EMDELLKEISRKRRSIRYGREVEL [L2M]	2.92
ENDELLKEISRKRRSIRYGREVEL [L2N]	4.2
EPDELLKEISRKRRSIRYGREVEL [L2P]	3.47
EQDELLKEISRKRRSIRYGREVEL [L2Q]	4.26
ERDELLKEISRKRRSIRYGREVEL [L2R]	3.71
ESDELLKEISRKRRSIRYGREVEL [L2S]	2.99
ETDELLKEISRKRRSIRYGREVEL [L2T]	3.38
EVDELLKEISRKRRSIRYGREVEL [L2V]	2.43
EWDELLKEISRKRRSIRYGREVEL [L2W]	2.99
EYDELLKEISRKRRSIRYGREVEL [L2Y]	3.54
ELAELLKEISRKRRSIRYGREVEL [D3A]	1.76
ELCELLKEISRKRRSIRYGREVEL [D3C]	1.73
ELEELLKEISRKRRSIRYGREVEL [D3E]	2.51
ELFELLKEISRKRRSIRYGREVEL [D3F]	2.12
ELGELLKEISRKRRSIRYGREVEL [D3G]	1.67
ELHELLKEISRKRRSIRYGREVEL [D3H]	2.48
ELIELLKEISRKRRSIRYGREVEL [D3I]	3.46
ELKELLKEISRKRRSIRYGREVEL [D3K]	2.38
ELLELLKEISRKRRSIRYGREVEL [D3L]	1.63
ELMELLKEISRKRRSIRYGREVEL [D3M]	1.65
ELNELLKEISRKRRSIRYGREVEL [D3N]	3.35

Variant	protein stability index
ELPELLKEISRKRRSIRYGREVEL [D3P]	2.26
ELQELLKEISRKRRSIRYGREVEL [D3Q]	2.62
ELRELLKEISRKRRSIRYGREVEL [D3R]	1.86
ELSELLKEISRKRRSIRYGREVEL [D3S]	2.57
ELTELLKEISRKRRSIRYGREVEL [D3T]	1.8
ELWELLKEISRKRRSIRYGREVEL [D3W]	1.75
ELYELLKEISRKRRSIRYGREVEL [D3Y]	2.12
ELDALLKEISRKRRSIRYGREVEL [E4A]	3.26
ELDCLLKEISRKRRSIRYGREVEL [E4C]	1.57
ELDDLLKEISRKRRSIRYGREVEL [E4D]	2.07
ELDFLLKEISRKRRSIRYGREVEL [E4F]	2.39
ELDGLLKEISRKRRSIRYGREVEL [E4G]	3.34
ELDHLLKEISRKRRSIRYGREVEL [E4H]	2.6
ELDILLKEISRKRRSIRYGREVEL [E4I]	1.73
ELDKLLKEISRKRRSIRYGREVEL [E4K]	2.59
ELDLLLKEISRKRRSIRYGREVEL [E4L]	2.19
ELDMLLKEISRKRRSIRYGREVEL [E4M]	1.9
ELDPLLKEISRKRRSIRYGREVEL [E4P]	2.48
ELDQLLKEISRKRRSIRYGREVEL [E4Q]	1.99
ELDRLLKEISRKRRSIRYGREVEL [E4R]	2.16
ELDSLLKEISRKRRSIRYGREVEL [E4S]	1.85
ELDTLLKEISRKRRSIRYGREVEL [E4T]	1.88
ELDVLLKEISRKRRSIRYGREVEL [E4V]	1.94
ELDWLLKEISRKRRSIRYGREVEL [E4W]	2.29

Variant	protein stability index
ELDYLLKEISRKRRSIRYGREVEL [E4Y]	1.27
ELDEALKEISRKRRSIRYGREVEL [L5A]	3.07
ELDECLKEISRKRRSIRYGREVEL [L5C]	3.12
ELDEDLKEISRKRRSIRYGREVEL [L5D]	3.73
ELDEELKEISRKRRSIRYGREVEL [L5E]	4.15
ELDEFLKEISRKRRSIRYGREVEL [L5F]	2.69
ELDEGLKEISRKRRSIRYGREVEL [L5G]	3.96
ELDEHLKEISRKRRSIRYGREVEL [L5H]	4.08
ELDEILKEISRKRRSIRYGREVEL [L5I]	2.45
ELDEKLKEISRKRRSIRYGREVEL [L5K]	3.61
ELDEMLKEISRKRRSIRYGREVEL [L5M]	3.25
ELDENLKEISRKRRSIRYGREVEL [L5N]	2.69
ELDEPLKEISRKRRSIRYGREVEL [L5P]	3.82
ELDEQLKEISRKRRSIRYGREVEL [L5Q]	4.14
ELDERLKEISRKRRSIRYGREVEL [L5R]	3.18
ELDESLKEISRKRRSIRYGREVEL [L5S]	3.6
ELDETLKEISRKRRSIRYGREVEL [L5T]	3.58
ELDEVLKEISRKRRSIRYGREVEL [L5V]	2.86
ELDEWLKEISRKRRSIRYGREVEL [L5W]	2.35
ELDEYLKEISRKRRSIRYGREVEL [L5Y]	3.44
ELDELAKEISRKRRSIRYGREVEL [L6A]	3.65
ELDELCKEISRKRRSIRYGREVEL [L6C]	3.29
